Patent US20190263889A1
Several values for one entry are separate records, joined by “and”; a condition that tells them apart may be missing. Equal entries are not always repeated.

Tests used:
[1] = target: CTLA-4Fc mutant protein M1 (human (murine residues substituted)); test: ELISA; binder 1 ug/ml on coated target
[2] = target: CTLA-4Fc mutant protein M10 (human (murine residues substituted)); test: ELISA; binder 1 ug/ml on coated target
[3] = target: CTLA-4Fc mutant protein M11 (human (murine residues substituted)); test: ELISA; binder 1 ug/ml on coated target
Chain of CTLA-4Fc mutant protein M11 (human (murine residues substituted)) (chain, as listed by the source mutant): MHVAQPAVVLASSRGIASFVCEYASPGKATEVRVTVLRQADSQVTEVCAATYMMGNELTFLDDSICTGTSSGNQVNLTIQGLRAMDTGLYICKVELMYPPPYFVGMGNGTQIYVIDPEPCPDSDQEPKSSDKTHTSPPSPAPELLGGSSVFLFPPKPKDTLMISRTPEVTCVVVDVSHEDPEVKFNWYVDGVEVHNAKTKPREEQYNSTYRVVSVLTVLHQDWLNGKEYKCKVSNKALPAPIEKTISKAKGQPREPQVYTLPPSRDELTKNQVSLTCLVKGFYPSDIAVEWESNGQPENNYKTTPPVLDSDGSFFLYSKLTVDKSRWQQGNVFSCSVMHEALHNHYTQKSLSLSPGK

[4] = target: CTLA-4Fc mutant protein M2 (human (murine residues substituted)); test: ELISA; binder 1 ug/ml on coated target
Chain of CTLA-4Fc mutant protein M2 (human (murine residues substituted)) (chain, as listed by the source mutant): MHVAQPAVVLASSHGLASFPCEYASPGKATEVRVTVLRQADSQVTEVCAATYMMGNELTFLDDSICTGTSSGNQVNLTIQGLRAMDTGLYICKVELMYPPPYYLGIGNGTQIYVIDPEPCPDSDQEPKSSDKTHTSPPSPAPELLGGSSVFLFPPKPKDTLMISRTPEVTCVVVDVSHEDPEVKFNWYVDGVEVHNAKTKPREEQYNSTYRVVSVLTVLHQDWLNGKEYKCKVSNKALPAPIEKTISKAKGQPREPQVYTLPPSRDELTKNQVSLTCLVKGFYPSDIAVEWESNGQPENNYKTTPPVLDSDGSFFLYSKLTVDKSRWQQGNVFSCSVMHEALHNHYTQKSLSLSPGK

[5] = target: CTLA-4Fc mutant protein M3 (human (murine residues substituted)); test: ELISA; binder 1 ug/ml on coated target
Chain of CTLA-4Fc mutant protein M3 (human (murine residues substituted)) (chain, as listed by the source mutant): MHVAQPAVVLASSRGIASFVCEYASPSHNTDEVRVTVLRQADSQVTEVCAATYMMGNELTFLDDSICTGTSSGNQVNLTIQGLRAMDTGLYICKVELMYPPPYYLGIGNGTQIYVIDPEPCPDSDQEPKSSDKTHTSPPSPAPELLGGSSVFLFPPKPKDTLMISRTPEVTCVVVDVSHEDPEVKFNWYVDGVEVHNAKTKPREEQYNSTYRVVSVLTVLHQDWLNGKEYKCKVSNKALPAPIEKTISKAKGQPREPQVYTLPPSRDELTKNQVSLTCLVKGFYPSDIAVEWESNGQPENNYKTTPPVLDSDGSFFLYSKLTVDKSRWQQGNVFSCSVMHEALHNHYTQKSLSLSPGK

[6] = target: CTLA-4Fc mutant protein M4 (human (murine residues substituted)); test: ELISA; binder 1 ug/ml on coated target
Chain of CTLA-4Fc mutant protein M4 (human (murine residues substituted)) (chain, as listed by the source mutant): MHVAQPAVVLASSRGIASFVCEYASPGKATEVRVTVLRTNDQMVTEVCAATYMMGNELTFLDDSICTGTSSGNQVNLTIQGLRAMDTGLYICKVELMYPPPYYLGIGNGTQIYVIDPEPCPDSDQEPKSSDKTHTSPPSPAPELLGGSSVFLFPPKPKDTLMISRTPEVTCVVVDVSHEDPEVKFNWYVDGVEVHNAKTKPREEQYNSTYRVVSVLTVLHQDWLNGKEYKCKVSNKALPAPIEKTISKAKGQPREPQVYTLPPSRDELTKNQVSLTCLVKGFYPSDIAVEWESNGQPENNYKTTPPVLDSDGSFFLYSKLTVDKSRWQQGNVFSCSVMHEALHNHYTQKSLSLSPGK

[7] = target: CTLA-4Fc mutant protein M5 (human (murine residues substituted)); test: ELISA; binder 1 ug/ml on coated target
Chain of CTLA-4Fc mutant protein M5 (human (murine residues substituted)) (chain, as listed by the source mutant): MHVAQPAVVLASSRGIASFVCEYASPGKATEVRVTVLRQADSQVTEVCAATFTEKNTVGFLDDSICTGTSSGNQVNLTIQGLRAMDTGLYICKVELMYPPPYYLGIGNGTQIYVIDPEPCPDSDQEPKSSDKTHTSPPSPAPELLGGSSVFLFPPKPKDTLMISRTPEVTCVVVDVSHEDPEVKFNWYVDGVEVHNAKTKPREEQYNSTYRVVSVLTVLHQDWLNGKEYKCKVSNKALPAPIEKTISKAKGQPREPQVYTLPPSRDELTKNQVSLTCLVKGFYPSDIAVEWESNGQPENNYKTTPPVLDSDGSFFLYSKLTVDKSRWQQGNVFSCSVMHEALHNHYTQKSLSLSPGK

[8] = target: CTLA-4Fc mutant protein M6 (human (murine residues substituted)); test: ELISA; binder 1 ug/ml on coated target
Chain of CTLA-4Fc mutant protein M6 (human (murine residues substituted)) (chain, as listed by the source mutant): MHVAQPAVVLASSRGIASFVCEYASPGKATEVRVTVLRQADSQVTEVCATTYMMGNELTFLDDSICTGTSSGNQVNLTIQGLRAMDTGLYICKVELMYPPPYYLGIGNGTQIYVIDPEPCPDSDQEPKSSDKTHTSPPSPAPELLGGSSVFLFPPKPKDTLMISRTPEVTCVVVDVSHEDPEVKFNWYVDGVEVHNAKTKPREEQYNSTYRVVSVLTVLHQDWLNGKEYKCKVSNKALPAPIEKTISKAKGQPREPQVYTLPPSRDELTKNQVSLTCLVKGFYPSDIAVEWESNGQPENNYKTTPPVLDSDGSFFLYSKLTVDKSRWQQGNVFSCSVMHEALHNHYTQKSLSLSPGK

[9] = target: CTLA-4Fc mutant protein M7 (human (murine residues substituted)); test: ELISA; binder 1 ug/ml on coated target
Chain of CTLA-4Fc mutant protein M7 (human (murine residues substituted)) (chain, as listed by the source mutant): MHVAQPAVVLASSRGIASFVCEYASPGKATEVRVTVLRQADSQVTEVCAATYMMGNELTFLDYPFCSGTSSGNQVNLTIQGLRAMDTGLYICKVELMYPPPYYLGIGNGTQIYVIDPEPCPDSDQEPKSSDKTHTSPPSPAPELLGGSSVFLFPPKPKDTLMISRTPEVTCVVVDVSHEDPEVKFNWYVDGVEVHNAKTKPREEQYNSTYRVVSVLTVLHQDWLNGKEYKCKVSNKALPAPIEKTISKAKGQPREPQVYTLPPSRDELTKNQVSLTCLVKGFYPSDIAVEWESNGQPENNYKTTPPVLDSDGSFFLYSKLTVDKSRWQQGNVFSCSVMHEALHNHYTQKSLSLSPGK

[10] = target: CTLA-4Fc mutant protein M8 (human (murine residues substituted)); test: ELISA; binder 1 ug/ml on coated target
Chain of CTLA-4Fc mutant protein M8 (human (murine residues substituted)) (chain, as listed by the source mutant): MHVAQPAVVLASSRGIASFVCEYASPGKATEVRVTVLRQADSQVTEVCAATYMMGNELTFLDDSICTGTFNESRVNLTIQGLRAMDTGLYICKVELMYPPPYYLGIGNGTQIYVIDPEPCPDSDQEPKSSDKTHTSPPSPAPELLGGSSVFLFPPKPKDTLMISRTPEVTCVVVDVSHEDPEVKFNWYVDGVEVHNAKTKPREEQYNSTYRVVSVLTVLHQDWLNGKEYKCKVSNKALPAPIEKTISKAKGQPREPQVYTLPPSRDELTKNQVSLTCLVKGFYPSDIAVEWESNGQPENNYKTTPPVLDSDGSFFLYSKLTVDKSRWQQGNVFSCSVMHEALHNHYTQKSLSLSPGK

[11] = target: CTLA-4Fc mutant protein M9 (human (murine residues substituted)); test: ELISA; binder 1 ug/ml on coated target
Chain of CTLA-4Fc mutant protein M9 (human (murine residues substituted)) (chain, as listed by the source mutant): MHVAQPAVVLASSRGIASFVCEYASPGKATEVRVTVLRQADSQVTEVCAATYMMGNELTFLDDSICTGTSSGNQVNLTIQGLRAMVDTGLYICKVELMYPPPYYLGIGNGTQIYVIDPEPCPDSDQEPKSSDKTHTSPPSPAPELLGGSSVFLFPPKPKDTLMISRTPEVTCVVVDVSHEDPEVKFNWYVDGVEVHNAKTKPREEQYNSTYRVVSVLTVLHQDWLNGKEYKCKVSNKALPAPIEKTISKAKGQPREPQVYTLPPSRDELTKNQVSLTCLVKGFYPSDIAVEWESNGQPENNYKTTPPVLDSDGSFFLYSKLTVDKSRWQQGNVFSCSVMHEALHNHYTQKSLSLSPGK

[12] = target: wild type human CTLA-4Fc fusion protein (abatacept) (human); test: ELISA; binder 1 ug/ml on coated target
Chain of wild type human CTLA-4Fc fusion protein (abatacept) (human) (chain, as listed by the source limits assumed): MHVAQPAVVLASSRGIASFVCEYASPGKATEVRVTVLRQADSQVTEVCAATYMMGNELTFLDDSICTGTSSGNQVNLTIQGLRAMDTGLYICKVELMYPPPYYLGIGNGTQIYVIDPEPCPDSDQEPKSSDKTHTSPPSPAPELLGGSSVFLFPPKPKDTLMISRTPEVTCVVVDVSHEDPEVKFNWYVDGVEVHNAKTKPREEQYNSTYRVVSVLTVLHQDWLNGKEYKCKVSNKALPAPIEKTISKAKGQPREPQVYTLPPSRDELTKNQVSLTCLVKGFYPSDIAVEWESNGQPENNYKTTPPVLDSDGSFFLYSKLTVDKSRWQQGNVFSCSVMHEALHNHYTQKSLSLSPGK

[13] = target: CTLA-4Fc mutant protein M1 (human (murine residues substituted)); test: ELISA; binder 100 ng/ml on coated target
[14] = target: CTLA-4Fc mutant protein M10 (human (murine residues substituted)); test: ELISA; binder 100 ng/ml on coated target
[15] = target: CTLA-4Fc mutant protein M11 (human (murine residues substituted)); test: ELISA; binder 100 ng/ml on coated target
[16] = target: CTLA-4Fc mutant protein M2 (human (murine residues substituted)); test: ELISA; binder 100 ng/ml on coated target
[17] = target: CTLA-4Fc mutant protein M3 (human (murine residues substituted)); test: ELISA; binder 100 ng/ml on coated target
[18] = target: CTLA-4Fc mutant protein M4 (human (murine residues substituted)); test: ELISA; binder 100 ng/ml on coated target
[19] = target: CTLA-4Fc mutant protein M5 (human (murine residues substituted)); test: ELISA; binder 100 ng/ml on coated target
[20] = target: CTLA-4Fc mutant protein M6 (human (murine residues substituted)); test: ELISA; binder 100 ng/ml on coated target
[21] = target: CTLA-4Fc mutant protein M7 (human (murine residues substituted)); test: ELISA; binder 100 ng/ml on coated target
[22] = target: CTLA-4Fc mutant protein M8 (human (murine residues substituted)); test: ELISA; binder 100 ng/ml on coated target
[23] = target: CTLA-4Fc mutant protein M9 (human (murine residues substituted)); test: ELISA; binder 100 ng/ml on coated target
[24] = target: wild type human CTLA-4Fc fusion protein (abatacept) (human); test: ELISA; binder 100 ng/ml on coated target
[25] = target: CTLA-4Fc mutant protein M10 (human (murine residues substituted)); test: ELISA; binder 0 (blank) on coated target
[26] = target: CTLA-4Fc mutant protein M11 (human (murine residues substituted)); test: ELISA; binder 0 (blank) on coated target
[27] = target: CTLA-4Fc mutant protein M8 (human (murine residues substituted)); test: ELISA; binder 0 (blank) on coated target
[28] = target: CTLA-4Fc mutant protein M1 (human (murine residues substituted)); test: ELISA; binder 1000 ng/ml on coated target
[29] = target: CTLA-4Fc mutant protein M10 (human (murine residues substituted)); test: ELISA; binder 1000 ng/ml on coated target
[30] = target: CTLA-4Fc mutant protein M11 (human (murine residues substituted)); test: ELISA; binder 1000 ng/ml on coated target
[31] = target: CTLA-4Fc mutant protein M2 (human (murine residues substituted)); test: ELISA; binder 1000 ng/ml on coated target
[32] = target: CTLA-4Fc mutant protein M3 (human (murine residues substituted)); test: ELISA; binder 1000 ng/ml on coated target
[33] = target: CTLA-4Fc mutant protein M4 (human (murine residues substituted)); test: ELISA; binder 1000 ng/ml on coated target
[34] = target: CTLA-4Fc mutant protein M5 (human (murine residues substituted)); test: ELISA; binder 1000 ng/ml on coated target
[35] = target: CTLA-4Fc mutant protein M6 (human (murine residues substituted)); test: ELISA; binder 1000 ng/ml on coated target
[36] = target: CTLA-4Fc mutant protein M7 (human (murine residues substituted)); test: ELISA; binder 1000 ng/ml on coated target
[37] = target: CTLA-4Fc mutant protein M8 (human (murine residues substituted)); test: ELISA; binder 1000 ng/ml on coated target
[38] = target: CTLA-4Fc mutant protein M9 (human (murine residues substituted)); test: ELISA; binder 1000 ng/ml on coated target
[39] = target: human IgG1-Fc control (human) [IgG part: P01857]; test: ELISA; binder 1000 ng/ml on coated target
mouse CTLA-4-Fc (mouse) = mouse CTLA-4-Fc (mouse) (UniProt P09793); test: ELISA; binder 1000 ng/ml on coated target
Chain of mouse CTLA-4-Fc (mouse) (P09793 36-161 limits assumed): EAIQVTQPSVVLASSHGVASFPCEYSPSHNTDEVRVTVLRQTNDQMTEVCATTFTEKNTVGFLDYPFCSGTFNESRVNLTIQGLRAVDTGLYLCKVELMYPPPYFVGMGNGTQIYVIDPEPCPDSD

[40] = target: wild type human CTLA-4Fc fusion protein (abatacept) (human); test: ELISA; binder 1000 ng/ml on coated target
[41] = target: CTLA-4Fc mutant protein M11 (human (murine residues substituted)); test: ELISA, target coated 1 ug/mL, biotinylated binder
[42] = target: human CTLA-4 (form in the blocking assay not stated) (human) (UniProt P16410); test: blocking of B7-CTLA-4 interaction; format not stated, no data shown
Chain of human CTLA-4 (form in the blocking assay not stated) (human) (P16410 36-223 limits assumed): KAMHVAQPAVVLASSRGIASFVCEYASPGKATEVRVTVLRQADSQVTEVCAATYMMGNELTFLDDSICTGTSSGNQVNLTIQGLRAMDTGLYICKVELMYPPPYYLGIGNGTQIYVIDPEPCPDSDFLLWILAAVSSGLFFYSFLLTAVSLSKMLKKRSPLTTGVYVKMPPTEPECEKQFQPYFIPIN

Chain of CTLA-4Fc mutant protein M10 (human (murine residues substituted)) (chain, as listed by the source mutant): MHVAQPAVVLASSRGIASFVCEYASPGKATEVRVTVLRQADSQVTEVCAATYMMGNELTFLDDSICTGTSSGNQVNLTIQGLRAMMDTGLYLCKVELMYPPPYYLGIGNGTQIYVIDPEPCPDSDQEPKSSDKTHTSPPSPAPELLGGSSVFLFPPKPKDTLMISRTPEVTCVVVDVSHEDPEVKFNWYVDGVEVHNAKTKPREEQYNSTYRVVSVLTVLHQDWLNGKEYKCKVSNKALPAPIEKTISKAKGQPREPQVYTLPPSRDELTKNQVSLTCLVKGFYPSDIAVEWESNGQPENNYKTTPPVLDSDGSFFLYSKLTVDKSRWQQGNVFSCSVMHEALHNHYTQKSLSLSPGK
Chain of CTLA-4Fc mutant protein M1 (human (murine residues substituted)) (chain, as listed by the source mutant): as the sequence (chain, as listed by the source limits assumed) above, with M1I, H2Q, A4T, A7S counted along it

chimeric L3D10 anti-human CTLA-4 antibody
OD450 [1]: 3.27 OD450 and 2.97 OD450 | OD450 [2]: 0.804 OD450 and 0.868 OD450 | OD450 [3]: 2.84 OD450 and 2.98 OD450 | OD450 [4]: 2.39 OD450 and 2.62 OD450 | OD450 [5]: 3.18 OD450 and 3.12 OD450 | OD450 [6]: 2.65 OD450 and 2.66 OD450 | OD450 [7]: 3.02 OD450 and 3.03 OD450 | OD450 [8]: 3.09 OD450 and 3.07 OD450 | OD450 [9]: 3.15 OD450 and 2.99 OD450 | OD450 [10]: 3.14 OD450 and 3.03 OD450 | OD450 [11]: 0.916 OD450 | OD450 [12]: 3.37 OD450 and 3.11 OD450 | OD450 [13]: 3.25 OD450 and 3.24 OD450 | OD450 [14]: 0.215 OD450 and 0.216 OD450 | OD450 [15]: 0.635 OD450 and 0.759 OD450 | OD450 [16]: 1.38 OD450 and 1.16 OD450 | OD450 [17]: 2.32 OD450 and 2.35 OD450 | OD450 [18]: 2.14 OD450 and 1.41 OD450 | OD450 [19]: 2.84 OD450 and 2.99 OD450 | OD450 [20]: 2.7 OD450 and 2.77 OD450 | OD450 [21]: 2.5 OD450 and 2.48 OD450 | OD450 [22]: 2.91 OD450 and 2.84 OD450 | OD450 [23]: 0.295 OD450 and 0.304 OD450 | OD450 [24]: 3.05 OD450 and 3.02 OD450 | OD450 [25]: 0.215 OD450 and 0.114 OD450 | OD450 [26]: 0.171 OD450 and 0.155 OD450 | OD450 [27]: 0.368 OD450 and 0.217 OD450 | OD450 [28]: 3.51 OD450 | OD450 [29]: 0.945 OD450 and 0.941 OD450 | OD450 [30]: 2.89 OD450 and 2.91 OD450 | OD450 [31]: 2.83 OD450 and 2.75 OD450 | OD450 [32]: 3.33 OD450 and 3.3 OD450 | OD450 [33]: 3.08 OD450 and 3.15 OD450 | OD450 [34]: 3.41 OD450 and 3.54 OD450 | OD450 [35]: 3.28 OD450 and 3.32 OD450 | OD450 [36]: 3.3 OD450 and 3.35 OD450 | OD450 [37]: 3.35 OD450 and 3.44 OD450 | OD450 [38]: 1.12 OD450 and 1.18 OD450 | OD450 [39]: 1.39 OD450 and 1.47 OD450 | OD450 (mouse CTLA-4-Fc (mouse)): 0.942 OD450 and 0.94 OD450 | OD450 [40]: 3.57 OD450 and 3.67 OD450 | fold reduction of binding against WT CTLA-4Fc [41]: 100 fold | fold higher B7 blocking activity than 10D1 [42]: 1000 fold
